Consider 5 molecules from PMC5300155, “Biochemical and biophysical investigations of the interaction between human glucokinase and pro-apoptotic BAD” (PLoS ONE, 2017).

Data set [1] deals with recombinant human BAD-GST fusion polypeptide (human) (UniProt Q92934). Put plainly: AUC; sedimentation velocity; single proteins or 1:1 molar mixtures incubated on ice 30 min; BAD buffer pH 8.5; 20°C.
For data set [2] the target is unchanged. Put plainly: ITC; Bcl-xL (100 μM) titrated in 4 μL injections into BAD-GST (10–18 μM) in the cell; 25°C; BAD buffer (0.1 M Tris, 0.1 M KCl, 0.5 M arginine, 2.5 mM CHAPS, 5 mM TCEP, 10% glycerol, pH 8.5).
Data set [3] deals with recombinant human Bcl-xL, Δ45–84, Δ210–233 variant (human) (UniProt Q07817). As to the kind of experiment: fluorescence polarisation; competition: 200 nM f-BH3, 50 nM Bcl-xL, BAD forms varied 0–50 μM; room temperature.
Data set [4] addresses recombinant human pancreatic glucokinase (human) (UniProt P35557).
Data set [5] has the same target. This is another data set of the same source.
The test system of data set [6] is BAD-knockout hepatocytes. Conditions: ref [9]; cited from earlier work. The text has this: Phosphorylation of BAD modulates its participation in apoptosis and glucose metabolism. High glucose concentrations stimulate BAD phosphorylation at three serine residues, resulting in reduced pro-apoptotic activity. In particular, phosphorylation at Ser155, within the BH3 domain of murine BAD, prevents interaction with Bcl-xL, thereby quenching BAD’s apoptotic activity. […] Moreover, i ...

Data set [7] concerns the target T1, Bcl-xL (Homo sapiens, UniProt Q07817, DEL45-84).
T1 construct: made in house
As to the kind of experiment: Analytical ultracentrifugation sedimentation velocity of 1:1 mixture BAD-GST and Bcl-xL. The class given is binding. As to conditions: 1:1 mixture of BAD-GST and Bcl-xL, 20°C, 50,000 x g, BAD buffer pH 8.5. On the procedure:
Sedimentation velocity experiments were conducted with an Optima XLI Ultracentrifuge (Beckman Coulter) using a four-hole rotor with three 420 μL samples in standard double-sector Epon centerpieces equipped with sapphire windows. Absorbance and interference data were collected simultaneously. Size-exclusion purified proteins were concentrated to OD280 nm = 0.3–1.0 prior to centrifugation. For complex formation, proteins were mixed in a 1:1 molar ratio in BAD buffer (0.1 M Tris, 0.1 M KCl, 0.5 M arginine, 2.5 mM CHAPS, 5 mM TCEP, 10% glycerol, pH 8.5) and incubated on ice 30 min prior to the start of the experiment. Experiments were carried out at 20°C and 50,000 x g. Data were analyzed with Ultrascan III software using a minimum of 70 scans per sample for analysis. Van Holde-Weischet analysis was performed to obtain S20,W values.

Data set [8] can be described thus: Circular dichroism spectroscopy (secondary structure). The class given is physicochemical. Conditions: far UV CD, 25°C, pH 7.8, 3–15 μM, CDPro. How it is done:
Proteins were dialyzed overnight into potassium phosphate buffer (50 mM, pH 7.8) containing KCl (50 mM), glycerol (5% v/v), and TCEP (4 mM). CD spectra were recorded on an AVIV 202 CD spectrometer at 25°C with protein concentrations ranging from 3–15 μM. Spectra were recorded from 200–260 nm in 10 mm pathlength cuvettes using a 1 nm step resolution and 3 s integration time. Three scans were recorded per sample, averaged, and baseline subtracted with appropriate buffer controls. CD signals were converted to molar ellipticity and deconvoluted using CDPro Software.

Data set [9] deals with T2, GCK (Homo sapiens, UniProt P35557).
T2 construct: hexahistidine (N); made in house; host or cells: glucokinase auxotroph BM5340(DE3)
T2 sequence (P35557 1-465): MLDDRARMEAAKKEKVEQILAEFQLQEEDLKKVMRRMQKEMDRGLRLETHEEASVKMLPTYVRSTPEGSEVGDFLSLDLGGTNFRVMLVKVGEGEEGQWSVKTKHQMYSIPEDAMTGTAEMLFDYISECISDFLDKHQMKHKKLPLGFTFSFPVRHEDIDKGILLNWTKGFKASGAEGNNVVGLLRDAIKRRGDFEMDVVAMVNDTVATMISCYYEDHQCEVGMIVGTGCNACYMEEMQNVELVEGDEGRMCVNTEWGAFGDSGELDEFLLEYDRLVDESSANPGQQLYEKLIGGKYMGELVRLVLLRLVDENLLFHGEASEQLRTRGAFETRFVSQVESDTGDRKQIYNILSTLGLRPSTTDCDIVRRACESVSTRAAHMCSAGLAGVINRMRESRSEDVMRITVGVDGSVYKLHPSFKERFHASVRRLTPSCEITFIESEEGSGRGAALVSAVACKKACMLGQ
As to the kind of experiment: GCK activity, microplate G6PDH-linked assay as described by Szlyk et al. (37°C). The class given is biochemical. Conditions: S118D BADGST 5 μM, or pBH3 5 μM; GCK 7.5 nM, 96 well plate; S2 Fig. On the procedure:
Steady state kinetics were also performed as described by Szlyk, et al.[13]. Briefly, G6PDH-linked assays were performed in clear 96-well plates at 37°C with a SpectraMax M5 microplate reader (Molecular Devices) recording absorbance at 340 nm every 30 s. Reaction mixtures contained GCK (7.5 nM), HEPES (100 mM, pH 7.4), KCl (150 mM), MgCl2(6 mM), DTT (1 mM), NAD (1 mM), BSA (0.05%), G6PDH (2.5 U), glucose (0.5–100 mM), and ATP (5 mM) in the presence or absence of BAD-GST S118D variant (5 μM) or phosphorylated BAD BH3 peptide (5 μM) in a final volume of 100 μL.
GCK (7.5 nM) was assayed in the presence of A. S118D BADGST (5 μM) or B. pBH3 (5 μM) in a 96 well plate using a microplate reader. Buffer conditions were as follows: Ref [13]: 100 mM Hepes, pH 7.4; 150 mM KCl; 1 mM NAD+; 0.05% BSA; 6 mM MgCl2; 1 mM DTT; 2.5 U G6PDH; 5 mM ATP. Optimal GCK conditions: 100 mM Hepes, pH 7.4; 150 mM KCl; 1 mM NADP+; 6 mM MgCl2; 10 mM DTT; 1.5 U G6PDH; 5 mM ATP. (EPS) Click here for additional data file.

For data set [10], the target named is T3, human pancreatic GCK (Homo sapiens, UniProt P35557).
T3 construct: hexahistidine (N); made in house; host or cells: glucokinase auxotroph BM5340(DE3)
T3 sequence (P35557 1-465): T2 sequence (P35557 1-465)
Put plainly: Isothermal titration calorimetry with GCK. As to conditions: GCK (100 μM) titrated into S118D BAD-GST (10–15 μM), 13 μL injections, BAD buffer pH 8.5, 25°C. It counts as binding. How it is done:
Recombinant human pancreatic GCK containing an N-terminal hexahistidine tag was produced in the glucokinase auxotroph BM5340(DE3) and purified using a previously described procedure. TEV protease was expressed as a GST-fusion protein from a pGEX plasmid encoding the S219V variant, provided by David Waugh (Addgene plasmid 8827). Expression was induced with IPTG (1 mM) for 4 h at 30°C. Cell pellets were resuspended in Tris buffer (50 mM, pH 8.0) containing NaCl (100 mM), glycerol (10% v/v), benzamidine (1 mM) and dithiothreitol (10 mM) and lysed via French Press. Polyethyleneimine (0.1%) was added to the lysate and protein was purified on a glutathione-affinity column (GSTrap, GE Sciences). TEV protease was flash frozen and stored at -80°C for up to 1 month.
Isothermal titration calorimetry was performed at 25°C using a MicroCal VP-ITC (GE Healthcare) instrument. Bcl-xL (100 μM) in BAD buffer (0.1 M Tris, 0.1 M KCl, 0.5 M arginine, 2.5 mM CHAPS, 5 mM TCEP, 10% glycerol, pH 8.5) was titrated into the calorimeter cell containing size-exclusion chromatography purified BAD-GST (10–18 μM) in 4 μL injections. A 21-residue phosphorylated peptide containing the BH3 domain of BAD was synthesized and purified to >95% by Peptide2.0 (pBH3 = NLWAAQRYGRELRRM(p)SDKFVD). The peptide (300 μM) in potassium phosphate buffer (25 mM) containing KCl (25 mM), TCEP (4 mM) and DMSO (5%) with and without glucose (200 mM) was titrated into the cell containing GCK (10 μM) previously dialyzed against the same buffer. GCK (100 μM) in BAD buffer was titrated into the cell containing S118D BAD-GST (10–15 μM) in 13 μL injections. Data were analyzed using Origin software.

Data set [11] addresses T1, Bcl-xL. Put plainly: Fluorescence polarization competition with f-BH3 for binding to Bcl-xL. As to conditions: ITC and fluorescence polarization assays. How it is done:
Exon 1 of human bcl-xl lacking the C-terminal residues 189–233 was obtained from Stanley Korsmeyer (Addgene plasmid 8755) and site-directed mutagenesis was performed to create the Δ45–84, Δ210–233 variant. Bcl-xL was expressed and purified using a modified procedure described previously. Briefly, Bcl-xL was purified by nickel affinity chromatography and dialyzed against potassium phosphate buffer (20 mM, pH 7.4) containing NaCl (50 mM), EDTA (1 mM), and DTT (10 mM). Protein was applied to a Superdex 200 10/30 HR size-exclusion column, at a flow rate of 0.02 mL/min, to remove aggregate and oligomers prior to binding assays.
A fluorescence polarization assay developed by Zhang, et al. was utilized to measure interactions between BAD and its binding partners. Two 21-residue FITC-labeled peptides containing the BH3 domain of BAD were synthesized and purified to >95% by Peptide2.0 (f-BH3 = NLWAAQRYGRELRRMSDK(FITC)FVD; f-pBH3 = NLWAAQRYGRELRRM(p)SDK(FITC) FVD). Polarization was measured at room temperature with an excitation wavelength of 485 nm and an emission wavelength of 530 nm using a SpectraMax M5 microplate reader (Molecular Devices). Experiments to measure binding constants of the fluorescent peptides to Bcl-xL or GCK were performed in black 96-well plates. Each well contained 15 nM peptide, 60 μL BAD buffer (0.1 M Tris, 0.1 M KCl, 0.5 M arginine, 2.5 mM CHAPS, 5 mM TCEP, 10% glycerol, pH 8.5) and variable concentrations of Bcl-xL (0–2.25 μM) or GCK (0–400 μM) in assay buffer (20 mM phosphate buffer, pH 7.4, 1 mM EDTA, 50 mM NaCl, 10 mM DTT) in a final volume of 120 μL. High GCK concentrations were chosen in an effort to detect a signal indicating a binding event. Assays containing GCK also contained 250 mM glucose. […] Plates were incubated at room temperature in the dark for 15 min prior to polarization measurements.

As for “recombinant human Bcl-xL, Δ45–84, Δ210–233 variant (from UniProt Q07817-1 1-209) (domain or fragment)”, in data set [1], the stoichiometry N (Bcl-xL per BAD-GST dimer) is 2. Further, the Kd in [2] came out at 7 nM.
With “BAD-GST phosphorylated in vitro with PKAc (from UniProt Q92934 1-168) (natural protein)”, the IC50 in [3] is 1600 nM. Besides, the increase in GCK activity over unmodified BAD-GST at 1.0 mM glucose in [4] was 5%. Moreover, the increase in GCK activity at glucose below the K0.5 value with phosphorylated BAD (> 2 μM) in data set [5] was 15%.

B1: S155D BAD variant: phosphomimic murine BAD variant, ref 9 (protein, UniProt Q61337 1-204, looked up, variant S155D)
Bcl2-associated agonist of …: MGTPKQPSLAPAHALGLRKSDPGIRSLGSDAGGRRWRPAAQSMFQIPEFEPSEQEDASATDRGLGPSLTEDQPGPYLAPGLLGSNIHQQGRAATNSHHGGAGAMETRSRHSSYPAGTEEDEGMEEELSPFRGRSRSAPPNLWAAQRYGRELRRMDDEFEGSFKGLPRPKSAGTATQMRQSAGWTRIIQSWWDRNLGKGGSTPSQ
Consider B1, for which, in data set [6], the “Effect on GCK activity in hepatocytes” value is “stimulates GCK activity in hepatocytes” and the “Restoration of normal glycolytic metabolism in BAD-knockout hepatocytes” value is reported as “normal glycolytic metabolism can be restored”.

B2: Bcl-xL: recombinant human Bcl-xL Δ45–84, Δ210–233 variant (protein)
chain: MSQSNRELVVDFLSYKLSQKGYSWSQFSDVEENRTEAPEGTESEAVKQALREAGDEFELRYRRAFSDLTSQLHITPGTAYQSFEQVVNELFRDGVNWGRIVAFFSFGGALCVESVDKEMQVLVSRIAAWMATYLNDHLEPWIQENGGWDTFVELYGNNAAAESRKGQER
modifications: left off: His tag (from the nickel affinity chromatography), end not stated, state not stated
notes: recombinant human Bcl-xL Δ45–84, Δ210–233 variant
As for B2, in data set [7], the Sedimentation coefficient is 1.3. For the same molecule, in data set [8], the Random coil content result is “roughly 30%”, the α-helical content worked out at 43% and the β-sheet content is listed as 14%.

B3: S118D variant: S118D phosphomimic variant of BAD-GST (protein)
chain: MFQIPEFEPSEQEDSSSAERGLGPSPAGDGPSGSGKHHRQAPGLLWDASHQQEQPTSSSHHGGAGAVEIRSRHSSYPAGTEDDEGMGEEPSPFRGRSRSAPPNLWAAQRYGRELRRMDDEFVDSFKKGLPRPKSAGTATQMRQSSSWTRVFQSWWDRNLGRGSSAPSQ
modifications: left off: His6, N-terminal, state not stated | GST, C-terminal, kept
Regarding B3, in [9], the “Effect on GCK kinetics under Szlyk et al. buffer conditions” value was “did not increase BAD’s effects on GCK kinetics”. In addition, the “Binding to GCK by ITC” value in [10] is “no detectable binding event”. Further, in data set [11], the “Ability to interact with Bcl-xL (in words)” value is reported as “significantly impaired in their ability to interact with Bcl-xL”.
